Here are results for two molecules from US20180022809A1 (VENTANA MEDICAL SYSTEMS, published 2018).

No end group written: not given here.

The target in assay [1] is human programmed death-ligand 1 (PD-L1) (human) (UniProt Q9NZQ7). The assay is described as follows: IHC on FFPE tissue sections of 119 NSCLC cases.
Assay [2] deals with T1, peptide fragment of the cytoplasmic region (amino acid residues 279-290) of human PD-L1 (human, not fully specified).
T1 construct: For immunization, Cys-Gly was appended to the N-terminus and the peptide was conjugated to KLH; also called PD-L1 antigen
T1 peptide: SKKQSDTHLEET
The assay is described as follows: ELISA screen on the PD-L1 peptide antigen.

human programmed death-ligand 1 (PD-L1) (human), sequence (Q9NZQ7 19-290 limits assumed): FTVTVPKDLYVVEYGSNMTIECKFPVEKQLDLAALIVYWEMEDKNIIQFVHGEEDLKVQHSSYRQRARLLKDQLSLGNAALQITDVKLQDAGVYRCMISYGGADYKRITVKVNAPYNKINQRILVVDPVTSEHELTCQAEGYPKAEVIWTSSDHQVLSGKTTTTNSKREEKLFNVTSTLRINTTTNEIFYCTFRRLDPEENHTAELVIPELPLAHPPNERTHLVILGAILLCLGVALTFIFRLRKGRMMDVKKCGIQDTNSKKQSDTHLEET

In turn, “anti-PD-L1 antibody E1L3N (Cell Signaling Technology)” had a mean H score (extent of membrane immunoreactivity) (H score (range 0 to 300)) in assay [1] of 56.

B1: anti-PD-L1 antibody SP142 (antibody, V domains shown)
VH: QSLEESGGRLVKPDETLTITCTVSGIDLSSNGLTWVRQAPGEGLEWIGTINKDASAYYASWAKGRLTISKPSSTKVDLKITSPTTEDTATYFCGRIAFKTGTSIWGPGTLVTVSS
VL: AIVMTQTPSPVSAAVGGTVTINCQASESVYSNNYLSWFQQKPGQPPKLLIYLASTLASGVPSRFKGSGSGTQFTLTISGVQCDDAATYYCIGGKSSSTDGNAFGGGTEVVVR
notes: the constant regions are not; also called rabbit anti-human PD-L1 (SP142) monoclonal antibody
Consider B1, for which the binding result in assay [2] is “binds”.
